Legend:
[1] = previously reported; ref [S3]; cited from earlier work
Procedure: Supplementary file pone.0067961.s005.tif: Figure S4 Concentration dependency of the analytical SEC chromatograms of the 'C-term' variant. The protein concentrations used were 1µM (black line), 2µM (orange line), 5 µM (pink line), 10 µM (cyan line), 70 µM (red line) and 125 µM (green line). Essentially the same elution profile was found for all the protein concentrations used. At the top the chromatogram the previously reported Stokes radii of the standard proteins used to calibrate the column are reported: conalbumin (40.4 Å), ovalbumin (30.5 Å), carbonic anhydrase (23.6 Å) [S3], ribonuclease ...

[2] = Analytical SEC relative populations of oligomeric forms; format: physicochemical, human; conditions: Superdex 75, 4 °C, 50 mM Tris pH 7.4, 150 mM KCl
Procedure: (§1) Analytical SEC was performed at 4 °C using a Superdex 75 10/300 GL column (GE Healthcare LifeSciences, Little Chalfont, U.K.), which had previously been calibrated using a mixture of standard proteins (Gel Filtration LMW Calibration Kit; GE Healthcare LifeSciences, Little Chalfont, U.K.). Typically, samples of the various constructs contained 70 µM of protein in 50 mM Tris buffer at pH 7.4, with 150 mM KCl, 5 mM MgCl2 and were incubated for 15 min (unless otherwise specified) at room temperature before being loaded onto the column for analysis. To evaluate the reversibility of the oligomerization process, the different elution peaks obtained for each protein variant were subsequently analyzed after concentrating the different fractions using AmiconUltra-0.5, Ultracel-3 Membrane, 3 kDa (Millipore, Bedford, MA, USA). A similar analysis was also performed at 6 µM concentration for all the protein variants to allow for a direct comparison between the results obtained by SEC and MS experiments.
The influence of substrate binding on the oligomerization properties of all the variants was examined by using the well-characterized Hsp70 substrate, the NR peptide (NRLLLTG, Genemed Synthesis Inc., San Antonio, TX, USA). A 14-fold excess of the peptide was added in each case to a fresh protein sample, incubated for 1 h at room temperature, unless otherwise specified, and then loaded onto the Superdex 75 10/300 GL column for analysis. The relative quantities of the different protein species were estimated by analysing the chromatographic profile using a Gaussian function for each elution peak (OriginPro 8, Originlab, Northampton, MA, USA) and measuring the relative area under each peak.

[3] = nESI-MS relative populations of oligomeric forms; format: physicochemical, human; conditions: 6-15 µM protein, 150 mM ammonium acetate, pH 7.4, estimated error 5% (SD of 3-4 independent experiments)
Procedure: Prior to MS analysis, samples were buffer exchanged into 150 mM ammonium acetate, pH 7.4, using Micro Bio-spin 6 columns (Bio-Rad, Digilab Division, Cambridge, MA, USA). For all the experiments protein concentrations ranging from 6 to 18 µM were used. In the case of the substrate binding experiments, proteins were analyzed in the presence of a 1: 1 molar ratio of the NR peptide; this substrate concentration, lower than in the SEC experiments, was chosen to ensure adequate resolution of the various charge state series, which is critical for unambiguous assignment of substrate-bound states. Due to suppression effects during nESI ionization, a relatively limited set of molar ratios could be investigated by in this way.
nESI-MS spectra were obtained according to a previously published protocol on an orthogonal time-of-flight mass spectrometer with a Z-spray source (LCT, Waters, Manchester, UK) in positive ion mode using the following parameters: capillary voltage, 1500 V; sample cone voltage, 120 V (unless otherwise specified); extraction cone voltage, 1V; and ion transfer stage pressure, 8.8 mbar. Spectra were calibrated externally using a 33 mg/ml solution of cesium iodide. Data were acquired and processed with MassLynx software (Waters, Manchester, UK), and are shown with minimal smoothing and without background subtraction. The relative abundances of the different oligomeric states were estimated from the intensities of the most abundant charge states for each construct and are expressed as a percentage of the total intensity.

[4] = Thermal denaturation monitored by far-UV CD; format: physicochemical, human
Procedure: Protein structural stability was analyzed by monitoring the CD signal at 222 nm upon thermal denaturation. Thermal runs were performed from 5 to 90 °C at a rate of 1 °C. min^-1. Data points were acquired every 0.1 °C with a response time of 2 s and a bandwidth of […]. After thermal denaturation, each protein sample was cooled to the starting temperature, and a second denaturation curve recorded in order to analyse the degree of reversibility of the denaturation process. Analysis of the thermal unfolding curves was performed assuming a three-state unfolding model.

[5] = Secondary structure content from far-UV CD; format: physicochemical, human; conditions: K2D software; 20 µM protein, 7 mM Tris pH 7.4, 170 mM KCl, 5 mM MgCl2; 25 °C
Procedure: Far-UV CD spectra for all protein variants were recorded using a Jasco J-810 spectropolarimeter equipped with a Peltier holder, using a 0.1 cm path length cuvette. Typically, samples contained 20 µM protein in 7 mM Tris buffer at pH 7.4, containing 170 mM KCl and 5 mM MgCl2. The far-UV CD spectra of all the variants in their native, thermally denatured and refolded states were recorded from 198 to 250 nm, and the spectrum of the buffer was systematically subtracted from the spectra of all protein samples. The secondary structure content was estimated from the far-UV CD spectrum for each protein variant using K2D software.

[6] = Tryptophan (W580) fluorescence emission; format: physicochemical, human; conditions: W580, excitation 295 nm
Procedure: Steady-state tryptophan fluorescence emission spectra of native, thermally denatured and refolded proteins were recorded from 300 to 400 nm, selectively exciting the only tryptophan residue in the SBD (W580) at 295 nm, using a Cary Eclipse spectrofluorimeter (Varian, Palo Alto, CA, USA). Excitation and emission band-passes were set to 5 nm each.

[7] = Analytical SEC, Stokes radius and oligomeric state; format: physicochemical, human
Procedure: as §1

[8] = 70 µM protein, 5 mM MgCl2, 15 min at room temperature, estimated error 3.5% (SD of 3-4 independent experiments)
[9] = 6-15 µM protein, 5 mM MgCl2, estimated error 3.5% (SD of 3-4 independent experiments)

B1: ovalbumin: SEC standard protein (protein, UniProt P01012 2-386, looked up)
Ovalbumin: GSIGAASMEFCFDVFKELKVHHANENIFYCPIAIMSALAMVYLGAKDSTRTQINKVVRFDKLPGFGDSIEAQCGTSVNVHSSLRDILNQITKPNDVYSFSLASRLYAEERYPILPEYLQCVKELYRGGLEPINFQTAADQARELINSWVESQTNGIIRNVLQPSSVDSQTAMVLVNAIVFKGLWEKAFKDEDTQAMPFRVTEQESKPVQMMYQIGLFRVASMASEKMKILELPFASGTMSMLVLLPDEVSGLEQLESIINFEKLTEWTSSNVMEERKIKVYLPRMKMEEKYNLTSVLMAMGITDVFSSSANLSGISSAESLKISQAVHAAHAEINEAGREVVGSAEAGVDAASVSEEFRADHPFLFCIKHIATNAVLFFGRCVSP
In the case of B1, the “Stokes radius of SEC standard protein” value [1] is listed as 30.5 Å.

B2: ribonuclease A: SEC standard protein (protein, UniProt P61823 27-150, looked up)
Ribonuclease pancreatic: KETAAAKFERQHMDSSTSAASSSNYCNQMMKSRNLTKDRCKPVNTFVHESLADVQAVCSQKNVACKNGQTNCYQSYSTMSITDCRETGSSKYPNCAYKTTQANKHIIVACEGNPYVPVHFDASV
For B2, the “Stokes radius of SEC standard protein” value [1] is given as 16.4 Å.

B3: C-term: truncated human Hsp70 (540-641), C-terminal segment of helix B, helices C-E and disordered C-terminal region (protein, UniProt P0DMV8 540-641, looked up, fragment)
chain: NALESYAFNMKSAVEDEGLKGKISEADKKKVLDKCQEVISWLDANTLAEKDEFEHKRKELEQVCNPIISGLYQGAGGPGPGGFGAQGPKGGSGSGPTIEEVD
Work on B3 yielded a Dimer population [2, 8] of 0%, a Monomer population [2, 8] of 100% and a Total oligomer population [2, 8] of 0%. The Dimer population [2, 9] was 0%, the Monomer population [2, 9] was 100% and the Total oligomer population [2, 9] was 0%. It also gave a Dimer population [3] of 0%, a Total oligomer population [3] of 0% and a Trimer population [3] of 0%. The “∆Hm, 1st transition” value ([4]; CD 222 nm, 20 µM protein, 7 mM Tris pH 7.4, 170 mM KCl, 5 mM MgCl2, three-state fit (C-term two-state), SE of fit) was 215 ± 6.28 kJ/mol, the “Tm, 1st transition” value ([4]; CD 222 nm, 5 to 90 °C at 1 °C/min, 20 µM protein, 7 mM Tris pH 7.4, 170 mM KCl, 5 mM MgCl2, three-state fit (C-term two-state), SE of fit) was 49.9 ± 0.2 °C and the “Reversibility of thermal unfolding” value ([4]; far-UV CD, second denaturation curve after cooling) was “reversibly”. For the same molecule, the “Random-coil content estimated from far-UV CD” value [5] was 33%, the “α-helix content estimated from far-UV CD” value [5] was 60% and the “β-sheet content estimated from far-UV CD” value [5] was 7%. The “Red-shift of fluorescence emission maximum, native to refolded” value [6] was “not observed”, the Oligomeric state ([7]; analytical SEC, 1 to 125 µM, single elution peak at 11.8 ml) was “monomeric” and the Stokes radius ([7]; analytical SEC, from retention volume) was 21.4 Å. For the same molecule, the “Ability to dimerize in isolation” value ([7]; under experimental conditions used) was “unable to dimerize in isolation”.

B4: conalbumin: SEC standard protein (protein, UniProt P02789 20-705, looked up)
Ovotransferrin: APPKSVIRWCTISSPEEKKCNNLRDLTQQERISLTCVQKATYLDCIKAIANNEADAISLDGGQAFEAGLAPYKLKPIAAEVYEHTEGSTTSYYAVAVVKKGTEFTVNDLQGKTSCHTGLGRSAGWNIPIGTLLHRGAIEWEGIESGSVEQAVAKFFSASCVPGATIEQKLCRQCKGDPKTKCARNAPYSGYSGAFHCLKDGKGDVAFVKHTTVNENAPDQKDEYELLCLDGSRQPVDNYKTCNWARVAAHAVVARDDNKVEDIWSFLSKAQSDFGVDTKSDFHLFGPPGKKDPVLKDLLFKDSAIMLKRVPSLMDSQLYLGFEYYSAIQSMRKDQLTPSPRENRIQWCAVGKDEKSKCDRWSVVSNGDVECTVVDETKDCIIKIMKGEADAVALDGGLVYTAGVCGLVPVMAERYDDESQCSKTDERPASYFAVAVARKDSNVNWNNLKGKKSCHTAVGRTAGWVIPMGLIHNRTGTCNFDEYFSEGCAPGSPPNSRLCQLCQGSGGIPPEKCVASSHEKYFGYTGALRCLVEKGDVAFIQHSTVEENTGGKNKADWAKNLQMDDFELLCTDGRRANVMDYRECNLAEVPTHAVVVRPEKANKIRDLLERQEKRFGVNGSEKSKFMMFESQNKDLLFKDLTKCLFKVREGTTYKEFLGDKFYTVISSLKTCNPSDILQMCSFLEGK
For B4, the “Stokes radius of SEC standard protein” value [1] is given as 40.4 Å.

Reference: publication PMC3696110, “Hsp70 Oligomerization Is Mediated by an Interaction between the Interdomain Linker and the Substrate-Binding Domain” (PLoS ONE, 2013)
